According to patent US20110002929A1:

Target: human RANK-L (human) (UniProt O14788)
Assay: cell-based or functional assay

Sequence of human RANK-L (human) (O14788 140-317 limits assumed): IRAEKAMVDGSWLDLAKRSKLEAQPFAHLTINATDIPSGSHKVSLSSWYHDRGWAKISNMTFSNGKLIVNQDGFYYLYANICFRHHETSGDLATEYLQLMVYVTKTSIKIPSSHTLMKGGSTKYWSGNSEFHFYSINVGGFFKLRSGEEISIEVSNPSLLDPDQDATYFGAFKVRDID

RANK-L induced NF-kappaB activation (luciferase reporter, HEK293T cells), IC50: 6.03 nM
Substance: osteoprotegerin (from UniProt O00300 22-401) (receptor)
